According to US20240352438A1, “MEANS AND METHODS FOR DETOXIFYING OCHRATOXIN A” (DSM Austria GmbH, priority 2021, published 2024):

B1: 278 (protein)
chain: MTTRTRILTAFLSLLAANACAADAAPAAPHTVVLRAARMFDGASGKLVDHPQLTIVGNKIVRIAQGDKAEVPAGAEVVDLGDATLLPGFIDAHVHLSGQSSDNWYGDFFDNMMRFPAEQALYGAYYARITLEAGFTSVRDVGSTDWVALGLRNAIDAGKVPGPRMLVSNYAVGSTGGHADQDPIPPHKLPLMGPLQGVCNGPEECRAAVRYQIKYGANVIKFMPSGGVLSLSDPVDAPELSQDEMNAVIGESHAWGRKVAAHAHGDKAAKMAVAAGVDSIEHGSFIEDDTLRAMKAKNVYLVPTISAIAHVEEKIGTFPPVIAEKGRAAAAHLRQTFRHAVQIGVPIALGTDAGVGAHGSNAREFRYMVENGLTPAQALLAGTANAARLLGTFDRVGTLEAGKLADVVAVPGNPIADITVTERPLFVMKDGVVVRRDAVR
modifications: exemplary polypeptide
B2: 279 (protein)
chain: MTTRTRILTAFLSLLAANACAADAAPAAPHTVVLRAARMFDGASGKLVDHPQLTIVGNKIVRIAQGDKAEVPAGAEVVDLGDATLLPGFIDAHVHLSGQSSDNWYGDFFDNMMRFPAEQALYGAYYARITLEAGFTSVRDVGSTDWVALGLRNAIDAGKVPGPRMLVSNYAVGSTGGHADQDPIPPHKLPLVGPLQGVCNGPEECRAAVRYQIKYGANVIKFMPSGGVLSLSDPVDAPELSQDEMNAVIGESHAWGRKVAAHAHGDKAAKMAVAAGVDSIEHGSFIEDDTLRAMKAKNVYLVPTISAIAHVEEKIGTFPPVIAEKGRAAAAHLRQTFRHAVQIGVPIALGTDAGVGAHGSNAREFRYMVENGLTPAQALLAGTANAARLLGTFDRVGTLEAGKLADVVAVPGNPIADITVTERPLFVMKDGVVVRRDAVR
modifications: exemplary polypeptide
B3: 283 (protein)
chain: MTTRTRILTAFLSLLAANACAADAAPAAPHTVVLRAARMFDGASGKLVDHPQLTIVGNKIVRIAQGDKAEVPAGAEVVDLGDATLLPGFIDAHVHLSGQSSDNWYGDFFDNMMRFPAEQALYGAYYARITLEAGFTSVRDVGSTDWVALGLRNAIDAGKVPGPRMLVSNYAVGSTGGHADQDPIPPHKLPLAGPLQGVCNGPEECRAAVRYQIKYGANVIKFMPSGGVLSLSDPDDAPELSQDEMNAVIGESHAWGRKVAAHAHGDKAAKMAVAAGVDSIEHGSFIEDDTLRAMKAKNVYLVPTISAIAHVEEKIGTFPPVIAEKGRAAAAHLRQTFRHAVQIGVPIALGTDAGVGAHGSNAREFRYMVENGLTPAQALLAGTANAARLLGTFDRVGTLEAGKLADVVAVPGNPIADITVTERPLFVMKDGVVVRRDAVR
modifications: exemplary polypeptide
B4: 293 (protein)
chain: MTTRTRILTAFLSLLAANACAADAAPAAPHTVVLRAARMFDGASGKLVDHPQLTIVGNKIVRIAQGDKAEVPAGAEVVDLGDATLLPGFIDAHVHLSGQSSDNWYGDFFDNMMRFPAEQALYGAYYARITLEAGFTSVRDVGSTDWVALGLRNAIDAGKVPGPRMLVSNYAVGSTGGHADQDPIPPHKLPLAGPLQGVCNGPEECRAAVRYQIKYGANVIKFMPSGGVLSLSDPVDAPELSQDEMNAVIGESHAWGRKVAAHAHGDKAAKMAVAAGVDSIEHGSFIEDDTLRAMKAKNVYLVPTISAVAHVEEKIGTFPPVIAEKGRAVAAHLRQTFRHAVQIGVPIALGTDAGVGAHGSNAREFRYMVENGLTPAQALLAGTANAARLLGTFDRVGTLEAGKLADVVAVPGNPIADITVTERPLFVMKDGVVVRRDAVR
modifications: exemplary polypeptide
B5: 298 (protein)
chain: MTTRTRILTAFLSLLAANACAADAAPAAPHTVVLRAARMFDGASGKLVDHPQLTIVGNKIVRIAQGDKAEVPAGAEVVDLGDATLLPGFIDAHVHLSGQSSDNWYGDFFDNMMRFPAEQALYGAYYARITLEAGFTSVRDVGSTDWVALGLRNAIDAGKVPGPRMLVSNYAVGSTGGHADQDPIPPHKLPLAGPLQGVCNGPEECRAAVRYQIKYGANVIKFMPSGGVLSLSDPVDAPELSQDEMNAVIGESHAWGRKVAAHAHGDKAAKMAVAAGVDSIEHGSFIEDDTLRAMKAKNVYLVPTISAIAHVEEKIGTFPPVIAEKGRAAAAHLRQTFRHAVQIGVPIALGTDAAVYAHGSNAREFRYMVENGLTPAQALLAGTANAARLLGTFDRVGTLEAGKLADVVAVPGNPIADITVTERPLFVMKDGVVVRRDAVR
modifications: exemplary polypeptide
B6: 302 (protein)
chain: MTTRTRILTAFLSLLAANACAADAAPAAPHTVVLRAARMFDGASGKLVDHPQLTIVGNKIVRIAQGDKAEVPAGAEVVDLGDATLLPGFIDAHVHLSGQSSDNWYGDFFDNMMRFPAEQALYGAYYARITLEAGFTSVRDVGSTDWVALGLRNAIDAGKVPGPRMLVSNYAVGSTGGHADQDPIPPHKLPLAGPLQGVCNGPEECRAAVRYQIKYGANVIKFMPSGGVLSLSDPVDAPELSQDEMNAVIGESHAWGRKVAAHAHGDKAAKMAVAAGVDSIEHGSFIEDDTLRAMKAKNVYLVPTISAIAHVEEKIGTFPPVIAEKGRAAAAHLRQTFRHAVQIGVPIALGTDAPLGAHGSNAREFRYMVENGLTPAQALLAGTANAARLLGTFDRVGTLEAGKLADVVAVPGNPIADITVTERPLFVMKDGVVVRRDAVR
modifications: exemplary polypeptide
B7: 314 (protein)
chain: MTTRTRILTAFLSLLAANACAADAAPAAPHTVVLRAARMFDGASGKLVDHPQLTIVGNKIVRIAQGDKAEVPAGAEVVDLGDATLLPGFIDAHVHLSGQSSDNWYGDFFDNMMRFPAEQALYGAYYARITLEAGFTSVRDVGSTDWVALGLRNAIDAGKVPGPRMLVSNYAVGSTGGHADQDPIPPHKLPLAGPLQGVCNGPEECRAAVRYQIKYGANVIKFMPSGGVLSLSDPVDAPELSQDEMNAVIGESHAWGRKVAAHAHGDKAAKMAVAAGVDSIEHGSFIEDDTLRAMKAKNVYLVPTISAVAHVEEKIGTFPPVIAEKGRAAAAHIRQTFRHAVQIGVPIALGTDAGVGAHGSNAREFRYMVENGLTPAQALLAGTANAARLLGTFDRVGTLEAGKLADVVAVPGNPIADITVTERPLFVMKDGVVVRRDAVR
modifications: exemplary polypeptide
B8: 65 (protein)
chain: MTTRTRILTAFLSLLAANACAADAAPAAPHTVVLRAARMFDGASGKLVDHPQLTIVGNKIVRIAQGDKAEVPAGAEVVDLGDATLLPGFIDAHVHLSGQSSDNWYGDFFDNMMRFPAEQALYGAYYARITLEAGFTSVRDVGSTDWVALGLRNAIDAGKVPGPRMLVSNYAVGSTGGHADQDPIPPHKLPLAGPLQGVCNGPEECRAAVRYQIKYGANVIKFMPSGGVLSLSDPVDAPELSQDEMNAVIGESHAWGRKVAAHAHGDKAAKMAVAAGVDSIEHGSFIEDDTLRAMKAKNVYLVPTISAIAHVEEKIGTFPPVIAEKGRAAAAHLRQTFRHAVQIGVPIALGTDAGVGAHGSWAREFRYMVENGLTPAQALLAGTANAARLLGTFDRVGTLEAGKLADVVAVPGNPIADITVTERPLFVMKDGVVVRRDAVR
modifications: exemplary polypeptide
B9: 86 (protein)
chain: MTTRTRILTAFLSLLAANACAADAAPAAPHTVVLRAARMFDGASGKLVDHPQLTIVGNKIVRIAQGDKAEVPAGAEVVDLGDATLLPGFIDAHVHLSGQSSDNWYGDFFDNMMRFPAEQALYGAYYARITLEAGFTSVRDVGSTDWVALGLRNAIDAGKVPGPRMLVSNYAVGSTGGHADQDPIPPHKLPLAGPLQGVCNGPEECRAAVRYQIKYGANVIKFMPSGGVLSLSDPVDAPELSQDEMNAVIGESHAWGRKVAAHAHGDKAAKMAVAAGVDSIEHGSFIEDDTLRAMKAKNVYLVPTISTIAHVEEKIGTFPPVIAEKGRAAAAHLRQTFRHAVQIGVPIALGTDAGVGAHGSNAREFRYMVENGLTPAQALLAGTANAARLLGTFDRVGTLEAGKLADVVAVPGNPIADITVTERPLFVMKDGVVVRRDAVR
modifications: exemplary polypeptide
B10: 90 (protein)
chain: MTTRTRILTAFLSLLAANACAADAAPAAPHTVVLRAARMFDGASGKLVDHPQLTIVGNKIVRIAQGDKAEVPAGAEVVDLGDATLLPGFIDAHVHLSGQSSDNWYGDFFDNMMRFPAEQALYGAYYARITLEAGFTSVRDVGSTDWVALGLRNAIDAGKVPGPRMLVSNYAVGSTGGHADQDPIPPHKLPLAGPLQGVCNGPEECRAAVRYQIKYGANVIKFMPSGGVLSLSDPVDAPELSQDEMNAVIGESHAWGRKVAAHAHGDKAAKMAVAAGVDSIEHGSFIEDDTLRAMKAKNVYLVPTISAIAHVEEKIGTFPPVIAEKGRAAAAHLRQTFRHAVQIGVPIALGTDAAVGAHGSNAREFRYMVENGLTPAQALLAGTANAARLLGTFDRVGTLEAGKLADVVAVPGNPIADITVTERPLFVMKDGVVVRRDAVR
modifications: exemplary polypeptide

Experiment: OTA detoxification activity assay (specific activity, fluorescence reduction ex/em 390/450 nm)
Type: biochemical
Conditions: SEQ ID NO: 1 = 100%
Experimental: To determine the specific activity of recombinant target polypeptides produced e.g. as described in Example 2 above in units per liter (U/L), ochratoxin A (OTA) detoxification activity assays were performed. One unit is defined as the amount of enzyme necessary for degradation of 1 μmol or OTA in 1 min when using a starting OTA concentration of […].
OTA detoxification activity assays were set up in a final volume of the reaction mixture of […], containing the recombinant enzyme preparation (preferably diluted to yield a volumetric activity of 1-10 mU/L), and 200 ng/mL OTA in 100 mM sodium phosphate buffer.
Specific activities were determined at pH 6.0 and pH 7.5. As soon as all components of the reaction mixture were mixed, OTA degradation was followed at 37° C. on a fluorescence spectrophotometer (BioTek Synergy H1 MFD Multimode microplate reader) by following the reduction in fluorescence at ex/em 390 nm/450 nm. For work performed at pH 6.0 and 7.5, a 100 mM sodium phosphate buffer was used.
For calculation of the specific activity, the initial linear part of the recorded fluorescence reduction curve was used. In addition to the fluorescence-based method described above, OTA degradation was also determined by using the HPLC-MS method as described by Dellafiora et al. 2020, Toxins 12, 258, essentially confirming the fluorescence-based results. Genes encoding either of the indicated SEQ ID NOs are expressed as described herein and the specific activities for the obtained polypeptide preparation are exemplarily shown in Table 8. Analogously, enzymatic activities using either ochratoxin B, C or TA as substrate or can be found.

Molecule | Specific OTA detoxification activities in % compared to the enzyme of SEQ ID NO: 1, pH 6.0 [%] | Specific OTA detoxification activities in % compared to the enzyme of SEQ ID NO: 1, pH 7.5 [%]
B1 | 32 | 19
B2 | 23 | 36
B3 | 29 | 23
B4 | 16 | 18
B5 | 15 | 17
B6 | 26 | 23
B7 | 71 | 33
B8 | 4 | 10
B9 | 4 | 9
B10 | 99 | 162
